Test [1] has as its target HOOK1 (Homo sapiens) (UniProt Q9UJC3). The settings on record: cited from earlier work.
Test [2] has as its target HOOK3 (Homo sapiens) (UniProt Q86VS8). The following applies: cited from earlier work.
Test [3] has as its target WT_(ZIP+)/WT_(ZIP−), BICD2_(1–98) heterodimer with C-terminal ZIP+/ZIP− leucine zipper (mouse (cDNA, methods); called human in the results and in the legend of Fig. 1) (UniProt Q921C5). Nature of the test: ITC; LIC1_(433–458) peptide titrated into ZIP+/ZIP− BICD2 heterodimers in the cell; 20 mM HEPES (pH 7.5), 100 mM NaCl, 0.5 mM TCEP; temperature given in the figure.
The target of test [4] is Y46D_(ZIP+)/WT_(ZIP−), half-functional BICD2_(1–98) heterodimer with C-terminal ZIP+/ZIP− leucine zipper (mouse (cDNA, methods); called human in the results and in the legend of Fig. 1) (UniProt Q921C5). The description is as above.

One may read the Kd as the free concentration of one partner at which half of the binding sites on the other are occupied at equilibrium, for simple one-to-one binding. A word on the stoichiometry N: it is the number of molecules, sites or subunits per partner or assembly.

Sequence of LIC1_(433–458), amphipathic helix of the dynein light intermediate chain-1 (Q9Y6G9 433-458): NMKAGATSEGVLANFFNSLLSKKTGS
Sequence of LIC1 (Q9Y6G9 whole entry): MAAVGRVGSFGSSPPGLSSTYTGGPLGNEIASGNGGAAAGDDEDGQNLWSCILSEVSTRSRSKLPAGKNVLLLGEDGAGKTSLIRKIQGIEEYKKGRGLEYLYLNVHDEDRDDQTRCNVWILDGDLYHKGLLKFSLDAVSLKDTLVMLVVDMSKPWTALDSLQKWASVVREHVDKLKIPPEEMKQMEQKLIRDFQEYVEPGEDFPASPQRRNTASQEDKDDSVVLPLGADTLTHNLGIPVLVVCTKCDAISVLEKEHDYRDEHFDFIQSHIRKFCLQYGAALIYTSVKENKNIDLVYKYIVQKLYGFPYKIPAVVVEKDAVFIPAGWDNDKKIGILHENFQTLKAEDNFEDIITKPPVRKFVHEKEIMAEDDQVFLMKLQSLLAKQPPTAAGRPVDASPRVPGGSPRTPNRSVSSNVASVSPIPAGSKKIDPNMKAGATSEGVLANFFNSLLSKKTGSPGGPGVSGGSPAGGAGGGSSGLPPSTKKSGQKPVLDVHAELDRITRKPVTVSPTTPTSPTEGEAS
Sequence of HOOK1 (Homo sapiens) (Q9UJC3 whole entry): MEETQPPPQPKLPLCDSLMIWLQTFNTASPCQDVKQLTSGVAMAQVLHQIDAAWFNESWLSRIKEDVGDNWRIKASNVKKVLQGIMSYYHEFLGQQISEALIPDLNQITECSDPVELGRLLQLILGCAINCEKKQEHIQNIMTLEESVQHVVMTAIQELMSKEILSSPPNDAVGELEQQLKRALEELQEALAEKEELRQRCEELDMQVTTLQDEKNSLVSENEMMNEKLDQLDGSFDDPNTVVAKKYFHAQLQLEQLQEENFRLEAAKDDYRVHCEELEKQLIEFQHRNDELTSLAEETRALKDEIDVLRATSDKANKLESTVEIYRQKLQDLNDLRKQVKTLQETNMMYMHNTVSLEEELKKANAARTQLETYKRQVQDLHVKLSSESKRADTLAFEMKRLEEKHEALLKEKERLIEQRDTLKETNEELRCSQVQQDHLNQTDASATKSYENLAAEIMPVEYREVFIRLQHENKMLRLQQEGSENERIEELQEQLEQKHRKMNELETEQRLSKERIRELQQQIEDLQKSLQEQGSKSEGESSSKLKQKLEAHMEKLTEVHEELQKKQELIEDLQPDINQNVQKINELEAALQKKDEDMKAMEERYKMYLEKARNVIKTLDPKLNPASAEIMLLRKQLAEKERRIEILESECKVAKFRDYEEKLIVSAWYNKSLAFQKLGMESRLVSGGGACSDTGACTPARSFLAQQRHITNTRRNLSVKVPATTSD
Sequence of HOOK3 (Homo sapiens) (Q86VS8 whole entry): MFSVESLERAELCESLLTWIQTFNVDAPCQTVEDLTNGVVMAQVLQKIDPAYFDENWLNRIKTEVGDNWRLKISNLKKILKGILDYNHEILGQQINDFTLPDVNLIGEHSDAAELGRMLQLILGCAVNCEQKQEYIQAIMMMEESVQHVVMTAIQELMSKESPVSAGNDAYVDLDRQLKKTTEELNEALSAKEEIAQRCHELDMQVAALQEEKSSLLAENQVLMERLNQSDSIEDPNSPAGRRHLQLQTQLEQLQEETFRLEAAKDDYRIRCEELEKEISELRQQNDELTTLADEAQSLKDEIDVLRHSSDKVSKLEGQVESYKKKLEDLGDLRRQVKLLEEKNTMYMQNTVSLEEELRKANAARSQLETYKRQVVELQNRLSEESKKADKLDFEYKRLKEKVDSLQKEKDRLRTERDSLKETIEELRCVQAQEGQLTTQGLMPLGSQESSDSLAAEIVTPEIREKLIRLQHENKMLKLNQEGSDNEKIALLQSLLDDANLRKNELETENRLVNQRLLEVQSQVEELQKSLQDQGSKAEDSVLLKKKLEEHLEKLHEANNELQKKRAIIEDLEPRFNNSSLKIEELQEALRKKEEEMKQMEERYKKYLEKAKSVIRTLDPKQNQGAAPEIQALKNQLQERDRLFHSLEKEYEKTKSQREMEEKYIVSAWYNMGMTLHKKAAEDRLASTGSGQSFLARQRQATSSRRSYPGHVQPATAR

Turning to LIC1 (from UniProt Q9Y6G9), the results for the Kd in test [1] and in test [2] were 15.7 µM and 6.3 µM, respectively.

For the substance “LIC1_(433–458), amphipathic helix of the dynein light intermediate chain-1 (from UniProt Q9Y6G9 433-458) (peptide)”, in test [3], the dissociation constant Kd was determined as 6.8 µM and the stoichiometry N came to 2. In test [4], the Kd was found to be 6.2 µM and the stoichiometry N was determined as 1.1.

The record behind these values is PMC7655957.
